Residue numbers refer to the chain shown, from its start. Blank lines part the entries; values can stand above or below the binder they belong to.
Experiments:
[1] = target: T1, CD94/NKG2C receptor (disulfide-linked heterodimer) (human, UniProt Q13241 1-179; P26717 1-231); experiment: summary of example XII
T1 construct: whole, on cells; Expressed in Ba/F3 transfectants; also called CD94/NKG2C heterodimer

[2] = target: T2, KIR2DS2 (human, UniProt P43631 22-304); experiment: co-immunoprecipitation from 125I-labelled Ba/F3 transfectants
T2 construct: whole, on cells; Expressed in Ba/F3 or Jurkat transfectants; also called NKAT5
Text: Unlike CD94/NKG2C, KIR2DS2 molecules are expressed on the cell surface in the absence of DAP12, although they are unable to induce cellular activation (Bléry, et al. (1997) *J. Biol. Chem.* 272:8989-8996; Lanier, et al. (1998) *Nature* 391:703-707). KIR2DS2+ Ba/F3 cells were infected with retroviruses encoding either wild-type FLAG-DAP12 or the D-A transmembrane FLAG-DAP12 mutant receptor. Both KIR2DS2 and the mutant DAP12 protein were expressed on the cell surface. […] Like NKG2A and NKG2C, the KIR2DS2 protein has a counterpart, KIR2DL2, that lacks a charged amino acid in the transmembrane and contains an ITIM in its cytoplasmic domain. It has been previously reported that KIR2DL2 is unable to associate with DAP12 (Lanier, et al. (1998) *Nature* 391:703-707). Collectively, these findings indicate that the association of DAP12 with either KIR2DS2 or CD94/NKG2C complexes likely results from interactions involving the transmembrane domains of these proteins.

[3] = target: T3, myc epitope tagged Ly49H (Ly49H-myc) (mouse, UniProt Q60682 1-266); experiment: co-immunoprecipitation from transfected Ba/F3 cells
T3 construct: whole, on cells; Expressed in Ba/F3 transfectants; also called mouse Ly49H
T3 sequence (looked up): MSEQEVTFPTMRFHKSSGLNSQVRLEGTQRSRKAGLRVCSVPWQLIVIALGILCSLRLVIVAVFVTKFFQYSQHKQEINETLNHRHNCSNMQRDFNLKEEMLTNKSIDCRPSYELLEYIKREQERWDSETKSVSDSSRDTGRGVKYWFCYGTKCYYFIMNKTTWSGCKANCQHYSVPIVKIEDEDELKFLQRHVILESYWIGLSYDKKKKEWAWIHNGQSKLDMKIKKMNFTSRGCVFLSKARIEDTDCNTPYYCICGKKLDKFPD
Text: (§1) Transcripts of Ly49D and Ly49H are present in IL-2 activated NK cells (20). Ly49D is expressed on ~50% of NK cells (Mason, et al. (1996) *J. Exp. Med.* 184:2119), and is associated with a tyrosine phosphoprotein of 16 kD (Mason, et al. (1998) *J. Immunol.* 160:4148-4152). Murine NK cells, like human NK cells, transcribe mRNA for DAP12, a molecule which associates with the activating KIR2DS and mediates cellular activation (Lanier, et al. (1998) *Nature* 391:703). To examine if Ly49D or Ly49H associated with DAP12, Ba/F3 cells were stably transfected with an epitope-tagged mouse DAP12 (DAP12-FLAG). […] Ba/F3 or the Ba/F3-DAP12 transfectants were then infected with retroviruses encoding either Ly49D, a myc epitope tagged Ly49H (Ly49H-myc), or as a control Ly49A. Neither Ly49D nor Ly49H-myc was expressed at appreciable levels on the cell surface when transfected into Ba/F3 cells.
(§2) To confirm that Ly49D and Ly49H non-covalently associate with DAP12 at the cell surface, Ly49D/DAP12-FLAG or Ly49H-myc/DAP12-FLAG Ba/F3 transfectants were surface iodinated, lysed with digitonin, and immunoprecipitates were analyzed by SDS-PAGE.

[4] = target: T4, Ly49D (mouse, UniProt Q60651 1-263); experiment: as above
T4 construct: whole, on cells; Expressed in Ba/F3 transfectants; also called mouse Ly49D
T4 sequence (looked up): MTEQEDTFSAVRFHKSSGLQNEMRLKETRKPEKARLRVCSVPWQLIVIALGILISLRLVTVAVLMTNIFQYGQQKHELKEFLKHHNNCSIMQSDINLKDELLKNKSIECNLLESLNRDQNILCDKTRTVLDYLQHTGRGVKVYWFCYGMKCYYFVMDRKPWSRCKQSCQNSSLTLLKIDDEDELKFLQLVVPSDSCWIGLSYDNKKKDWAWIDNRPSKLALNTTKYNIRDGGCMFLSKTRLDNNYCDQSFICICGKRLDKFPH
Text: as §1, §2

T1 sequence (Q13241 whole entry, chain 1 of 2): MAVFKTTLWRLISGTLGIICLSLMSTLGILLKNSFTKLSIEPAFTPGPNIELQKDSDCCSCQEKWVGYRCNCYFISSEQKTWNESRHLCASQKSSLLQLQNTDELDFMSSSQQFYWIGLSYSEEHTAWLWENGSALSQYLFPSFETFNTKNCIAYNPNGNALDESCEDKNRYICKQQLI
T1 sequence (P26717 whole entry, chain 2 of 2): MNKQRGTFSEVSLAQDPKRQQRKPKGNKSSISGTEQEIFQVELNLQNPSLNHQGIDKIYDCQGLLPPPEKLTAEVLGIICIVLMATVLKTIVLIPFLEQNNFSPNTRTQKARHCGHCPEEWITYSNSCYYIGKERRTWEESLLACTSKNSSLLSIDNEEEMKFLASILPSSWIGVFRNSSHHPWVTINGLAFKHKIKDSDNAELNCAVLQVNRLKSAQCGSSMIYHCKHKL
T2 sequence (P43631 22-304): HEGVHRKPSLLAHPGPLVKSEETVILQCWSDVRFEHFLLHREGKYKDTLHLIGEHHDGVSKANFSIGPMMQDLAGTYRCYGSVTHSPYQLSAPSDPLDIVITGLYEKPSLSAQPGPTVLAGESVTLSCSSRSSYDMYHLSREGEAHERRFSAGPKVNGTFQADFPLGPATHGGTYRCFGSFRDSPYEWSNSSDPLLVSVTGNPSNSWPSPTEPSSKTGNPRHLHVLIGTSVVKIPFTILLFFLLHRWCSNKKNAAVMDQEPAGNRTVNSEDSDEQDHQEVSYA

binding result [1]: binds
B1: DAP12-FLAG (human DAP12 with a FLAG epitope tag at the N terminus) (receptor, not shown: small tags and cut ends)
chain: QAQSDCSCSTVSPGVLAGIVMGDLVLTVLIALAVYFLGRLVPRGRGAAEAATRKQRITETESPYQELQGQRSDVYSDLNTQRPYYK
notes: Made as CD8 leader, FLAG, then DAP12 without its own leader; Runs as a disulfide-bonded homodimer on the cell surface; also called FLAG-DAP12

binding result [2]: no binding
B2: D-A transmembrane FLAG-DAP12 mutant receptor (receptor, not shown: small tags and cut ends)
chain: B1 chain with D23A
notes: also called mutant DAP12 protein

binding result [3]: binds
binding result [4]: binds
B3: epitope-tagged mouse DAP12 (DAP12-FLAG) (receptor, not shown: small tags and cut ends)
chain: AQSDTFPRCDCSSVSPGVLAGIVLGDLVLTLLIALAVYSLGRLVSRGQGTAEGTRKQHIAETESPYQELQGQRPEVYSDLNTQRQYYR
notes: Limits of the construct are not described; also called mouse DAP12-FLAG; FLAG-tagged form of mouse DAP12
